{"source": "paper PMC11186766", "key": {"[1]": {"target": "succinylated concanavalin A", "assay": "cryo-EM structure; time-resolved cryo-EM: purified GluK2 at 60 uM incubated with 500 uM BPAM344 for 20-30 min on ice, 90 uM succinylated concanavalin A added, 10 mM L-glutamate applied less than 3 s before plunge-freezing; 150 mM NaCl, 20 mM Tris-HCl pH 8.0, 0.05% digitonin"}, "[2]": {"target": "full-length rat GluK2 kainate receptor (rat) (UniProt P42260)", "assay": "cryo-EM structure; time-resolved cryo-EM: purified GluK2 at 60 uM incubated with 500 uM BPAM344 for 20-30 min on ice, 90 uM succinylated concanavalin A added, 10 mM L-glutamate applied less than 3 s before plunge-freezing; 150 mM NaCl, 20 mM Tris-HCl pH 8.0, 0.05% digitonin"}}}
{"substance": "succinylated concanavalin A (natural protein)", "values": [{"measurement": "stoichiometry N", "setting": "[1]", "value": 2}]}
{"substance": "full-length rat GluK2 kainate receptor (from UniProt P42260 32-908)", "values": [{"measurement": "stoichiometry N", "setting": "[2]", "value": 4}]}
